Assay results: paper PMC7593969

Legend:
[1] = biological target: Nef(1 to 115)-(Y115A)-GFP-Flag (HIV-1 (NL4-3)) (UniProt P03406); assay: co-IP; HEK293T cotransfected 24 h with LMP7-Myc and GFP-Flag or Nef(1 to 115)-GFP-Flag constructs; anti-Flag IP; blot with anti-Myc
[2] = biological target: Nef(1 to 115)-(L112A)-GFP-Flag (HIV-1 (NL4-3)) (UniProt P03406); assay: as above
[3] = biological target: Nef(1 to 115)-(L112A/Y115A)-GFP-Flag (HIV-1 (NL4-3)) (UniProt P03406); assay: as above
LMP7-Myc, P28062-2 = assay: co-IP (anti-Flag IP, anti-Myc IB), band intensity quantified; details: 293T cells cotransfected for 24 h; parent: 100; read off a plot
LMP7-Myc, P28062-2, sequence (P28062 other isoform, or with tags, fused parts or gaps): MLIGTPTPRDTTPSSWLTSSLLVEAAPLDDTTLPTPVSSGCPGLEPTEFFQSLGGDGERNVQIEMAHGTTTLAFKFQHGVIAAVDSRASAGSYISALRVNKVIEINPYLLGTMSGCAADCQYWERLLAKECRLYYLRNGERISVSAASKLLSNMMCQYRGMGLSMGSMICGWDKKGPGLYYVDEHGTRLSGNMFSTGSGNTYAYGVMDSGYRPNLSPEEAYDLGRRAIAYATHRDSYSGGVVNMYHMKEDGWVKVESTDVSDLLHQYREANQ

proLMP7-Flag = proLMP7-Flag (UniProt P28062); assay: co-IP; HEK293T cotransfected 24 h with Nef-HA constructs and LMP7-Flag constructs; RIPA lysates; anti-Flag antibody and protein G-Sepharose at 4°C overnight; blot with anti-HA
LMP7-His (biotinylated) = LMP7-His (biotinylated) (UniProt P28062); assay: BLI; biotinylated LMP7 on streptavidin biosensors; GST or Nef-GST in solution; PBS; 1:1 binding model

“LMP7-Myc (from UniProt P28062-2 1-272) (natural protein)” showed a relative co-IP band intensity (Nef(1 to 115) = 100%) [1] of 14%, a relative co-IP band intensity (Nef(1 to 115) = 100%) [2] of 19% and a relative co-IP band intensity (Nef(1 to 115) = 100%) [3] of 1.4%.

For “Nef(1 to 115)-GFP-Flag (from UniProt P03406) 101-104A”, the percent of parent (LMP7-Myc, P28062-2) was 53%.

With “Nef(1 to 115)-GFP-Flag (from UniProt P03406) 105-108A” the percent of parent (LMP7-Myc, P28062-2) was 120%.

Substance “Nef(1 to 115)-GFP-Flag (from UniProt P03406) D111A” has a percent of parent (LMP7-Myc, P28062-2) of 130%.

For “Nef(1 to 115)-GFP-Flag (from UniProt P03406) I109A”, the percent of parent (LMP7-Myc, P28062-2) was 60%.

“Nef(1 to 115)-GFP-Flag (from UniProt P03406) I109A; L110A; D111A; L112A” showed a percent of parent (LMP7-Myc, P28062-2) of 28%.

With “Nef(1 to 115)-GFP-Flag (from UniProt P03406) I114A” the percent of parent (LMP7-Myc, P28062-2) was 47%.

“Nef(1 to 115)-GFP-Flag (from UniProt P03406) L110A” gave a percent of parent (LMP7-Myc, P28062-2) of 60%.

Substance “Nef(1 to 115)-GFP-Flag (from UniProt P03406) W113A” has a percent of parent (LMP7-Myc, P28062-2) of 97%.

With “Nef(1 to 115)-GFP-Flag (from UniProt P03406) W113A; I114A; Y115A” the percent of parent (LMP7-Myc, P28062-2) was 31%.

With “Nef(1 to 130)-HA (from UniProt P03406 1-130) (domain or fragment)” the strength of the interaction (co-IP band) relative to Nef(1 to 115) (proLMP7-Flag) was 40 % higher and the strength of the interaction (co-IP band) relative to Nef(1 to 149) (proLMP7-Flag) was 20 % stronger.

In the case of “Nef-GST (from UniProt P03406 1-206) (natural protein)”, the BLI wavelength shift (LMP7-His (biotinylated)) is reported as 71.1 pm and the Kd (LMP7-His (biotinylated)) is reported as 735 nM.
